Results on 1 molecule are retold here after US20250361544A1, “TYPE III-D CRISPR-CAS SYSTEM AND USES THEREOF” (BOARD OF REGENTS, THE UNIVERSITY OF TEXAS SYSTEM, published 2025).

Assay [1] has as its target T1, Cas6-2a of Synechocystis sp. PCC 6803 (Synechocystis sp. PCC 6803).
T1 construct: The Results say cas6-2a was cloned and expressed with the operon
T1 chain: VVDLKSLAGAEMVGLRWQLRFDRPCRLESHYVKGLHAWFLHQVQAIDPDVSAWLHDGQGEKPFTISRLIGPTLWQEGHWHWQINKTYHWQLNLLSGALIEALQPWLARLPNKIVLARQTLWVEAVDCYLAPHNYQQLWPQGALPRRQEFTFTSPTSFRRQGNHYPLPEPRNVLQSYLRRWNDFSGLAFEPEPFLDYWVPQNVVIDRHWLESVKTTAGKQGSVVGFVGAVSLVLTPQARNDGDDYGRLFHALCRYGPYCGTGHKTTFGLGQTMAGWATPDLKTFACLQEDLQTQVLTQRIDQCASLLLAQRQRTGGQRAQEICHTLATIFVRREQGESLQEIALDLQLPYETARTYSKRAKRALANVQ
Put plainly: metal affinity (His6-Cas10) and size-exclusion co-purification from E. coli; SDS-PAGE and mass spectrometry. How it is done:
The sample was applied to a second HisTrap column; however, due to inefficient TEV cleavage, the complex unexpectedly bound the column and eluted with high imidazole. The complex was further purified by size exclusion chromatography (SEC) on a HiLoad 16/600 Superdex 200 column (GE Healthcare) equilibrated in SEC Buffer). Mutant Type III-Dv complexes were similarly expressed and purified, except TEV protease was omitted. Purified complexes were typically concentrated to 1.5 mg/ml using a centrifugal concentrator (Amicon; 100 kDa MWCO), aliquoted, and stored at −80° C.
Denaturing liquid chromatography mass spectrometry (LC-MS) was performed on a Dionex UltiMate 3000 nanoLC system coupled to a Thermo Orbitrap Fusion Lumos Tribrid mass spectrometer (San Jose, Ca). The trap column (3 cm) and analytical column (30 cm) were packed in-house with polymer reverse-phase (PLRP) packing material. Approximately 80 ng of the CRISPR complex were injected and subjected to reverse-phase chromatography, utilizing water with 0.1% formic acid as mobile phase A (MPA), and acetonitrile with 0.1% formic acid as mobile phase B (MPB). Forward trapping occurred for 5 minutes at 2% MPB at a flow rate of 5 μL/min at the trap column. Elution onto the analytical column (at 0.3 μL/min) occurred by increasing MPB to 10% over a 3-minute gradient followed by an increase to 35% MPB over 32 minutes. […]
A general note: In gel filtration, larger molecules generally elute earlier.

In assay [2] the target is T2, Type III-Dv subunits co-expressed without Csx19 (Cas7-Cas5-Cas11, Cas7-2x and Cas7-insertion, with crRNA) (Synechocystis sp. PCC 6803).
T2 construct: These are the subunits left beside His-tagged Cas10 when csx19 carries a nonsense mutation (pPF3089); they are grouped here only as the prey set of the ΔCsx19 pulldown; also called ΔCsx19 complex; ΔCsx19 type Type III-Dv complex
T2 sequence (chain, as listed by the source limits assumed, chain 1 of 3): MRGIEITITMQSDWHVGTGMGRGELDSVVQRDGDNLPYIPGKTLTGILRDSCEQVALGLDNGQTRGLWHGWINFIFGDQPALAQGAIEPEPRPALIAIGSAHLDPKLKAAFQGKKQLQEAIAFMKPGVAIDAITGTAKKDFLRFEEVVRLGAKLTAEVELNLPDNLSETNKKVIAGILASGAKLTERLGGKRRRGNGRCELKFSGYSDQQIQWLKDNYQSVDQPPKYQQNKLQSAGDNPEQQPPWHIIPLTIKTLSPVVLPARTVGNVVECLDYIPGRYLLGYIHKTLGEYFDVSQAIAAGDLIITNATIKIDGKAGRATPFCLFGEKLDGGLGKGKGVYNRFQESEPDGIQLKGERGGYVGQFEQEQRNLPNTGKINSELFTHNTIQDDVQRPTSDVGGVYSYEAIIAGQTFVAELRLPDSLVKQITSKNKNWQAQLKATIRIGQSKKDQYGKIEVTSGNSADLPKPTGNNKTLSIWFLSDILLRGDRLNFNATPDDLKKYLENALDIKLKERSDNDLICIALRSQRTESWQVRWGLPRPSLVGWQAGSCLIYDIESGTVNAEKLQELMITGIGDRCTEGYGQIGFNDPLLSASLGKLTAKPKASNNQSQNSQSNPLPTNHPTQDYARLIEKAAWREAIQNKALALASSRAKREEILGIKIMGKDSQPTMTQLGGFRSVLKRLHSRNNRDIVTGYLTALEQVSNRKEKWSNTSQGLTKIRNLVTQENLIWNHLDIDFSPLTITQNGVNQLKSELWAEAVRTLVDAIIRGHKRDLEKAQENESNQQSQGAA
T2 sequence (chain, as listed by the source limits assumed, chain 2 of 3): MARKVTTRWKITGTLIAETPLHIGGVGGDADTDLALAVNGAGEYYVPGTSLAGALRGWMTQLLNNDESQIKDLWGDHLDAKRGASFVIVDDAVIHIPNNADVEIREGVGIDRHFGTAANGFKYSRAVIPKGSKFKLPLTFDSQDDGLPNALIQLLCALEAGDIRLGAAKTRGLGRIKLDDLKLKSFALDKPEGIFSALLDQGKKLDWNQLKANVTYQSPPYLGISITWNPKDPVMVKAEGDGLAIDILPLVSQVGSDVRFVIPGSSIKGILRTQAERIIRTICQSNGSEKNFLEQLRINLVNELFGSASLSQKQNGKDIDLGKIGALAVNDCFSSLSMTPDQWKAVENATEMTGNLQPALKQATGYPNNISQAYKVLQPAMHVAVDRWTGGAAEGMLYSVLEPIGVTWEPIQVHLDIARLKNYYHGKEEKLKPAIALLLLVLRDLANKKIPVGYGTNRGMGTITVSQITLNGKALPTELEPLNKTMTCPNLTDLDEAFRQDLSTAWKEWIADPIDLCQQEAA
T2 sequence (chain, as listed by the source limits assumed, chain 3 of 3): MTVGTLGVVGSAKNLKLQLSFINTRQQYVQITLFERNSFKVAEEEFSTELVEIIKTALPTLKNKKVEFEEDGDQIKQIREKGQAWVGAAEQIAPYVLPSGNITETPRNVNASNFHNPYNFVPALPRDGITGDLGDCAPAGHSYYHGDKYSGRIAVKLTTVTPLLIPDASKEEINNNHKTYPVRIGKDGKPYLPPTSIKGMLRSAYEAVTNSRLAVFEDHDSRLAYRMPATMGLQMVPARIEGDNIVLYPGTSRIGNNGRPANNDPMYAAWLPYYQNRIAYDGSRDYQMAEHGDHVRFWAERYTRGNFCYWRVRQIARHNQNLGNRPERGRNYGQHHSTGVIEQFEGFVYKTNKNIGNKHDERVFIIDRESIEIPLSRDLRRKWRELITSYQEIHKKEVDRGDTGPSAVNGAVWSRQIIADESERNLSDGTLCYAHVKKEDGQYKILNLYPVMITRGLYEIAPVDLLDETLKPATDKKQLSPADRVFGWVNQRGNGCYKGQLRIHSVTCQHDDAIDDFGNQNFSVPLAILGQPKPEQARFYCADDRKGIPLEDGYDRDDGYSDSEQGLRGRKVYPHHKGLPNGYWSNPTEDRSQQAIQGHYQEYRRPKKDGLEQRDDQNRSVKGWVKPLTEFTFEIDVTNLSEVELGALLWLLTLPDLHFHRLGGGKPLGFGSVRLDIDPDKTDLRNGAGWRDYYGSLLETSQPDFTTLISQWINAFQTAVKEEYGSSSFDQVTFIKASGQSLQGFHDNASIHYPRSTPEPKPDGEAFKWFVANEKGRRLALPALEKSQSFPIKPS
Put plainly: His-tag affinity purification and SEC of the ΔCsx19 co-expression; SDS-PAGE.

B1: Cas10 subunit of the Synechocystis sp. PCC 6803 Type III-Dv CRISPR-Cas complex, with N-terminal His6 tag and TEV site (other)
chain: MFLVLIETSGNQHFIFSTNKLRENIGASELTYLATTEILFQGVDRVFQTNYYDQWSDTNSLNFLADSKLNPAIDDPKNNADIEILLATSGKAIALVKEEGKAKQLIKEVTKQALINAPGLEIGGIYVNCNWQDKLGVAKAVKEAHKQFEVNRAKRAGANGRFLRLPIAAGCSVSELPASDFDYNADGDKIPVSTVSKVKRETAKSAKKRLRSVDGRLVNDLAQLEKSFDELDWLAVVHADGNGLGQILLSLEKYIGEQTNRNYIDKYRRLSLALDNCTINAFKMAIAVFKEDSKKIDLPIVPLILGGDDLTVICRGDYALEFTREFLEAFEGQTETHDDIKVIAQKAFGVDRLSACAGISIIKPHFPFSVAYTLAERLIKSAKEVKQKVTVTNSSPITPFPCSAIDFHILYDSSGIDFDRIREKLRPEDNTELYNRPYVVTAAENLSQAQGYEWSQAHSLQTLADRVSYLRSEDGEGKSALPSSQSHALRTALYLEKNEADAQYSLISQRYKILKNFAEDGENKSLFHLENGKYVTRFLDALDAKDFFANANHKNQGE
notes: Whole gene amplified from Synechocystis genomic DNA and co-expressed in E. coli from pPF2434; The complex also holds a 37-nt crRNA; also called His6-TEV-Cas10; N-His6-tagged Cas10; not shown: TEV cleavage was inefficient, so
Turning to B1, the binding result in assay [1] and in assay [2] was “no binding” throughout.
